The target in assay [1] is T1, recombinant human IL-12 (p35+p40) (human, UniProt P29459 23-219; P29460 23-328).
T1 sequence (looked up) 1: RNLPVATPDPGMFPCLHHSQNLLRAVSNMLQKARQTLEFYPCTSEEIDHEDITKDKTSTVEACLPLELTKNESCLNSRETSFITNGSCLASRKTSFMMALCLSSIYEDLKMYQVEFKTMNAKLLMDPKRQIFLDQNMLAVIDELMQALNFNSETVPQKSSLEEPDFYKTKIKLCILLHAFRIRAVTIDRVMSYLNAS
T1 sequence (looked up) 2: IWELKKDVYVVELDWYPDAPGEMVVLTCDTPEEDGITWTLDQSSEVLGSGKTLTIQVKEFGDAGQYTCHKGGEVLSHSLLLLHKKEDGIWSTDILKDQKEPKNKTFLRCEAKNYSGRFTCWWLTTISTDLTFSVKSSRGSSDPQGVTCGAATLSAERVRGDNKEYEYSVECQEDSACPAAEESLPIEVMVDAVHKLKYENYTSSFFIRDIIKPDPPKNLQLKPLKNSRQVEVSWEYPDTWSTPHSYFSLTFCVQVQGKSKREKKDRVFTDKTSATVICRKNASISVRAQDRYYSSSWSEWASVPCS
Description: SPR (Biacore T200, 37 C), antibody captured by anti-human Fc, cytokine injected.
Description: (§1) For these analyses, kinetic assays were conducted at 37° C. at a collection rate of 10 Hz on a BIAcore™ T200 instrument (GE Healthcare).

For assay [2], the target named is T2, recombinant human IL-23 (p19+p40) (human, UniProt Q9NPF7 20-189; P29460 23-328).
T2 sequence (looked up) 1: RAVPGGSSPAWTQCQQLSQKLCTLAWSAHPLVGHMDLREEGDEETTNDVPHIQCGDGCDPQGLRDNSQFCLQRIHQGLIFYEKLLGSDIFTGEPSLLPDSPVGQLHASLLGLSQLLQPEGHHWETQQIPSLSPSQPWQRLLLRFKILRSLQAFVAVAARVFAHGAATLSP
T2 sequence (looked up) 2: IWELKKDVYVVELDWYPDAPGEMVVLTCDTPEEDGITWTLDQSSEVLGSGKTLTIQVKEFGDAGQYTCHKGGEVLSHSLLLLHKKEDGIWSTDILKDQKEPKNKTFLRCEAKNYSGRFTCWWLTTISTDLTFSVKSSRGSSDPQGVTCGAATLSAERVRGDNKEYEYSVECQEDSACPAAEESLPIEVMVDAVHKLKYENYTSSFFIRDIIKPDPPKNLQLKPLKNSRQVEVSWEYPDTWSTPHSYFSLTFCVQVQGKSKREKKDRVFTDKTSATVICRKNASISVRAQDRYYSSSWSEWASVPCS
Described as above.
Description: as §1

The target of assay [3] is T3, recombinant cynomolgus monkey IL-12 (p35+p40) (cynomolgus monkey, UniProt A0A2K5V4L8 57-253; G7P6S2 23-328).
T3 construct: also called Cyno IL-12
T3 sequence (p35): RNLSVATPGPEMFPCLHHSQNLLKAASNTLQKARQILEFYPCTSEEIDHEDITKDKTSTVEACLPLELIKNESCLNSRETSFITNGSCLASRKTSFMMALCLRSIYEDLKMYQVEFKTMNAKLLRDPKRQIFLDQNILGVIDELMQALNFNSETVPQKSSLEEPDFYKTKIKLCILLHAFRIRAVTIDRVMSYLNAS
T3 sequence (p40): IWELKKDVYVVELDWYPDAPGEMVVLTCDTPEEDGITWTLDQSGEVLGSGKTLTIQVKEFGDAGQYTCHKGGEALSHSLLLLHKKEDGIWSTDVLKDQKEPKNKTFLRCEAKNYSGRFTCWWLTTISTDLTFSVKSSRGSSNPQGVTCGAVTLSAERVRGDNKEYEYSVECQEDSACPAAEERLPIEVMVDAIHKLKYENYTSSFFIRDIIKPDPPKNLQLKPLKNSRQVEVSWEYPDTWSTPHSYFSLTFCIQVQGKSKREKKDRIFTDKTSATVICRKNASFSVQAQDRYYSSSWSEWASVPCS
The description is as above.
Description: as §1

Assay [4] addresses T4, recombinant cynomolgus monkey IL-23 (p19+p40) (cynomolgus monkey, UniProt H6WS56 20-189; G7P6S2 23-328).
T4 construct: also called Cyno IL-23
T4 sequence (p19): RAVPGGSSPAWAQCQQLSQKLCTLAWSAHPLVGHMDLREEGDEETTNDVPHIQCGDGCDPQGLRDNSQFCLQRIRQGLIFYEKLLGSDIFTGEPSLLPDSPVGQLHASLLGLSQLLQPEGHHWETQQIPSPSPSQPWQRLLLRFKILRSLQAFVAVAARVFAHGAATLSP
T4 sequence (p40): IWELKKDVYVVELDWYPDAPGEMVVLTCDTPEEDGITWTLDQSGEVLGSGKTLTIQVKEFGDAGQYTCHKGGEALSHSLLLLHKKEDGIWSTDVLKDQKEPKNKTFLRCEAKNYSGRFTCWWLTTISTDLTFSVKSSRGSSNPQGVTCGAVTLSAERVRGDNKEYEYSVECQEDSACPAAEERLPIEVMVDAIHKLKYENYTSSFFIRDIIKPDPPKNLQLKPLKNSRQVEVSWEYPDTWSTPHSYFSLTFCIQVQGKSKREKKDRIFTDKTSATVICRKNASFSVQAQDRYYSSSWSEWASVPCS
The assay is described as above.
Description: as §1

For assay [5], the target named is T5, biotinylated cynomolgus monkey TSLP (Pfizer) (cynomolgus monkey, UniProt A0A7N9CAT7 29-159, biotinylated (Avi tag by Example 2)).
T5 construct: Antigen of the KinExA fixed antigen assay
Description: KinExA, fixed antigen format, solution affinity, mean. In general terms: A kinetic exclusion assay measures how much of one partner remains free in solution.
Description: (§2) Samples were prepared in PBS containing 0.1% sodium azide and 1.0 mg/ml BSA. A fixed antigen assay method was used to determine binding affinity. […] Data analysis was performed with the KinExA Pro software version 4.3.11 (Sapidyne). […] The ‘drift correction’ option was selected when responses varied between replicate injections. Two curves were obtained in independent experiments and analyzed using the ‘n-curve analysis’ tool to obtain global best fit values for the KD and active concentration of biotinylated TSLP. The software reports each best fit value along with a 95% confidence interval).

In assay [6] the target is T6, biotinylated human TSLP (Pfizer) (human, UniProt Q969D9 29-159, biotinylated (Avi tag by Example 2)).
T6 construct: Antigen of the KinExA fixed antigen assay
The description is as above.
Description: as §2

The target in assay [7] is recombinant cynomolgus monkey TSLP (Pfizer) (cynomolgus monkey, UniProt A0A7N9CAT7 29-159). Description: cell-based or functional assay.
Chain of recombinant cynomolgus monkey TSLP (Pfizer) (A0A7N9CAT7 entry or part of it): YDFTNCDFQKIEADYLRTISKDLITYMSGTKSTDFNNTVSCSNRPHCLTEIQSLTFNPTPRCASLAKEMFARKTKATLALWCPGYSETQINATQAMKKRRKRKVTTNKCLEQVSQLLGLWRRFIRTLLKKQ

T5 sequence (A0A7N9CAT7 entry or part of it): as above

B1: p40-0003 (antibody, human IgG1, kappa, V domains shown)
VH: EVQLVQSGAEVKKPGESLKISCKGSGYSFTTYWLGWVRQMPGKGLDWIGIMSPVDSDIRYSPSFQGQVTMSVDKSITTAYLQWNSLKASDTAMYYCARRRPGQGYFDFWGQGTLVTVSS
VL: DIQMTQSPSSLSASVGDRVTITCRASQGISSWLAWYQQKPEKAPKSLIYAASSLQSGVPSRFSGSGSGTDFTLTISSLQPEDFATYYCQQYNIYPYTFGQGTKLEIKR
notes: also called p40 mAb; ustekinumab (C230) variable regions on human IgG1 effector-null
Turning to B1, the Kd (usually a measure of binding affinity in units of concentration) in assay [1] is 0.156 nM; in assay [2] it was 0.16 nM; in assay [3] it was 0.368 nM; in assay [4] it was 0.317 nM.

B2: IL413TSLP-1024 (antibody)
heavy: not shown
light 1: SYVLTQPPSVSVAPGQTARITCGGNNLGSKSVHWYQQKPGQAPVLVVYDDKDRPSWIPERFSGSNSGNTATLTISRGEAGDEADYYCQVWDSKSDHVVFGGGTKLTVLGQPKAAPSVTLFPPSSEELQANKATLVCLISDFYPGAVTVAWKADSSPVKAGVETTTPSKQSNNKYAASSYLSLTPEQWKSHRSYSCQVTHEGSTVEKTVAPTECS
chain 1: DIQMTQSPSSLSASVGDRVTITCKASESVDHFGWSLVHWYQQKPGKAPKLLIYRASNLESGVPSRFSGSGSGTDFTLTISSLQPEDFATYYCQQSNEDPWTFGGGTKVEIKRTVAAPSVFIFPPSDEQLKSGTASVVCLLNNFYPREAKVQWKVDNALQSGNSQESVTEQDSKDSTYSLSSTLTLSKADYEKHKVYACEVTHQGLSSPVTKSFNRGECGGGGSEVTLRESGPALVKPTQTLTLTCTFSGFSLSNFGEGLSWIRQPPGKGLEWLAHIYWDDDKRYNPSLKSRLTISKDTSRNQVVLTMTNMDPVDTATYYCARRETVFYWYFDVWGQGTTVTVSSASTKGPSVFPLAPSSKSTSGGTAALGCLVKDYFPEPVTVSWNSGALTSGVHTFPAVLQSSGLYSLSSVVTVPSSSLGTQTYICNVNHKPSNTKVDKKVEPKSCEKTHTCPPCPAPEAAGAPSVFLFPPKPKDTLMISRTPEVTCVVVDVSHEDPEVKFNWYVDGVEVHNAKTKPREEQYNSTYRVVSVLTVLHQDWLNGKEYKCKVSNKALPAPIEKTISKAKGQPREPQVYTLPPSREEMTKNQVSLTCEVKGFYPSDIAVEWESNGQPENNYKTTPPVLDSDGSFFLYSKLTVDKSRWQQGNVFSCSVLHEALHSHYTQKSLSLSPGK
light 2: DIQMTQSPSSLSASVGDRVTITCRASQSVDEEGDSYMNWYQQKPGKAPKLLIYAASNLESGVPSRFSGSGSGTDFTLTISSLQPEDFATYYCQQSNKDPPTFGGGTKVEIKRTVAAPSVFIFPPSDEQLKSGTASVVCLLNNFYPREAKVQWKVDNALQSGNSQESVTEQDSKDSTYSLSSTLTLSKADYEKHKVYACEVTHQGLSSPVTKSFNRGEC
chain 2: EVQLVESGGGLVQPGGSLRLSCAASGFTFSSYAMSWVRQAPGKGLEWVASISSGDTTYYPDSVKGRFTISRDNAKNSLYLQMNSLRAEDTAVYYCARNEGYYFGLTLWGQGTLVTVSSASTKGPSVFPLAPSSKSTSGGTAALGCLVKDYFPEPVTVSWNSGALTSGVHTFPAVLQSSGLYSLSSVVTVPSSSLGTQTYICNVNHKPSNTKVDKKVEPKSC
notes: RR-EE, LS; monovalent for TSLP
Take B2: binding in assay [5] was put at a Kd of 6.31 pM. Further, the affinity in assay [6], expressed as Kd, was 3.03 pM. In addition, in assay [7], the “IC50, TARC production bioassay, Human Whole Blood (median)” value was determined as 32.7 pM and the “IC50, TARC production bioassay, Peripheral Blood Monocytes (median)” value was 30 pM.

These data come from patent publication US20240117030A1 (Pfizer, published 2024).
